Consider 3 molecules from US20120225065A1 (published 2012).

In this experiment the target is Recombinant human IL-21 (human, UniProt Q9HBE4 25-162). As to the kind of experiment: cell-based or functional assay.
Recombinant human IL-21, sequence (Q9HBE4 25-162 limits assumed): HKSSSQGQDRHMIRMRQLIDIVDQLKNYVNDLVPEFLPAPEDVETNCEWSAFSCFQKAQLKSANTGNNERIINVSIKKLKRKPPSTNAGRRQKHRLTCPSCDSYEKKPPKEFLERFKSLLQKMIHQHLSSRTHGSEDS

B1: Human anti-human IL-21 monoclonal antibody clone 366.552.11 (antibody, V domains shown)
VH: QVQLQESGPGLVKPSETLSLTCTVSGGSISSDFWGWIRQPPGKGLEWIGYISSRGSTNYNPSLKRRVTISVDTSRNQFSLKLSSVTAADTAVYYCARSAGVTDFDFWGQGTLVTVSS
VL: DIQMTQSPSSVSASVGDRVTITCRASQGISSWLAWYQHKPGKAPKLLIYVASSLQSGVPSRFSGSGSGTDFTLTISSLQPEDFATYYCQQANSFPLTFGGGTKVEIK
Consider B1, for which the “% IgD-low, CD138+ Plasma Cells at antagonist:ligand ratio 0.16:1 (actual 0.22:1)” value came to 50.3%; the “% IgD-low, CD138+ Plasma Cells at antagonist:ligand ratio 0.6:1 (actual 0.9:1)” value stood at 44.8%; the “% IgD-low, CD138+ Plasma Cells at antagonist:ligand ratio 2.5:1 (actual 3.6:1)” value was 26.4%; the “% IgD-low, CD138+ Plasma Cells at antagonist:ligand ratio 10:1 (actual 14.4:1)” value was determined as 15.4%.

B2: Heterodimeric IL-21 soluble receptor IL-21R/γc-Fc (Fc fusion, not shown: a dimerising Fc or GST)
chain 1: not shown
chain 2: LNTTILTPNGNEDTTADFFLTTMPTDSLSVSTLPLPEVQCFVFNVEYMNCTWNSSSEPQPTNLTLHYWYKNSDNDKVQKCSHYLFSEEITSGCQLQKKEIHLYQTFVVQLQDPREPRRQATQMLKLQNLVIPWAPENLTLHKLSESQLELNWNNRFLNHCLEHLVQYRTDWDHSWTEQSVDYRHKFSLPSVDGQKRYTFRVRSRFNPLCGSAQHWSEWSHPIHWGSNTSKENPFLFALEA
Consider B2, for which the “% IgD-low, CD138+ Plasma Cells at antagonist:ligand ratio 0.16:1” value came to 66.7%; the “% IgD-low, CD138+ Plasma Cells at antagonist:ligand ratio 0.6:1” value turned out to be 54.2%; the “% IgD-low, CD138+ Plasma Cells at antagonist:ligand ratio 2.5:1” value is 41.7%; the “% IgD-low, CD138+ Plasma Cells at antagonist:ligand ratio 10:1” value is 23.4%.

B3: Human anti-human IL-21 monoclonal antibody clone 366.328.10 (antibody, V domains shown)
VH: EVQLVESGGGLVKPGGSLRLSCAASGFIFSSYSMNWVRQAPGKGLEWVSSITSGSYYIHYADSVKGRFTISRDNAKNSLYLQMNSLRAEDTAVYYCVRERGWGYYGMDVWGQGTTVTVSS
VL: AIQLTQSPSSLSASVGDRVTITCRASQDIDSALAWYQQKPGKAPKILIHDASSLESGVPSRFSGSGSGTDFTLTISSLQPEDFATYYCQQFNSYPYTFGQGTKLEIK
Regarding B3, the “% IgD-low, CD138+ Plasma Cells at antagonist:ligand ratio 0.16:1” value came out at 52.1%; the “% IgD-low, CD138+ Plasma Cells at antagonist:ligand ratio 0.6:1” value amounted to 41.4%; the “% IgD-low, CD138+ Plasma Cells at antagonist:ligand ratio 2.5:1” value was 20.2%; the “% IgD-low, CD138+ Plasma Cells at antagonist:ligand ratio 10:1” value was 15.4%.
